In article PMC12590944:

Molecular target: Archaeoglobus fulgidus ferritin (AfFt), empty cage (Archaeoglobus fulgidus) (UniProt O29424)
Test: UV-vis spectra; AfFt@ samples (AfFt mixed with APEX2-GFP+ at 1:3 under 300 mM NaCl); cargo per cage calculated from the spectra

For “Engineered Ascorbate Peroxidase 2-GFP+36 fusion protein (APEX2-GFP+) (enzyme)”, the stoichiometry N (cargo molecules per cage) was 1.45.
